The text below walks through data of patent US20030187247A1.

In experiment [1] the target is recombinant gp120 of HIV-1 strain IIIB (HIV-1 strain IIIB) (UniProt P04578). The experiment can be described thus: inhibition ELISA, free gp120 titrated against plate-bound gp120. For orientation: An ELISA detects its analyte on a solid surface through an enzyme-linked reagent.
For experiment [2], the target named is multimeric HXBc2 envelope glycoprotein complex on the transfected COS-1 cell surface (HIV-1 (HXBc2 clone)) (UniProt P04578). Put plainly: Fab on transfected COS-1 cells, immunoprecipitation.
The target of experiment [3] is gp120 derived from the HIV-1 strain LAI (Repligen) (HIV-1 strain LAI) (UniProt P03377). The experiment can be described thus: SPR (BIAcore), gp120 immobilized. (In general: SPR reads the build-up and loss of mass on a sensor chip optically.)
For experiment [4] the target is unchanged. Put plainly: BIAcore sandwich, Fab 2 on gp120 held by Fab 1; competitor (Fab 1): b12.
Experiment [5] addresses HXBc2 mature gp120 expressed by COS-1 cells (HIV-1 (HXBc2 clone)) (UniProt P04578).
Experiment [6] deals with gp120 derived from the HIV-1 strain LAI (Repligen) (HIV-1 strain LAI) (UniProt P03377). Put plainly: BIAcore sandwich, Fab 2 on gp120 held by Fab 1; competitor (Fab 1): b13.
For experiment [7] the target is unchanged. The experiment can be described thus: SPR (BIAcore), kon/koff.
Experiment [8] deals with HXBc2 gp120 mutant NO V1/V2 (HIV-1 (HXBc2 clone of strain LAI)) (UniProt P04578). Put plainly: capture ELISA (D7324).
The target of experiment [9] is gp120 derived from the HIV-1 strain LAI (Repligen) (HIV-1 strain LAI) (UniProt P03377). The experiment can be described thus: BIAcore sandwich, Fab 2 on gp120 held by Fab 1; competitor (Fab 1): b6.
The target is the same in experiment [10]. The experiment can be described thus: BIAcore sandwich, same Fab injected twice (negative control); competitor: b6.
In experiment [11] the target is recombinant gp120 of HIV-1 strain IIIB (HIV-1 strain IIIB) (UniProt P04578). Put plainly: SPR (BIAcore).
Experiment [12] has as its target HXBc2 mature gp120 expressed by COS-1 cells (HIV-1 (HXBc2 clone)) (UniProt P04578). Put plainly: Fab on radiolabeled COS-1 cells, lysis, precipitation, gel densitometry.
Experiment [13] has as its target gp120 derived from the HIV-1 strain LAI (Repligen) (HIV-1 strain LAI) (UniProt P03377). Put plainly: BIAcore sandwich, same Fab injected twice (negative control); competitor: b12.

Where only a bound is given, the exact number is not on record here.

What is called IC50 is the concentration at which inhibition is half-maximal. As usually defined, the koff is the first-order rate constant of dissociation. Lower therefore signals a long-lived complex. As usually defined, the kon is the second-order rate constant of association. Low values mean slower complex formation, high ones faster complex formation. Turning to Fab b6, in experiment [1], the IC50 was found to be 1 nM. This substance gave a Fab concentration at saturation in experiment [2] above 150 µg/mL. The substance also registered an off-rate (koff) in experiment [3] of 0.00016 s⁻¹. The substance also had an on-rate (kon) in [3] of 16000 M⁻¹ s⁻¹. Also, the response (RU), background subtracted in experiment [4] worked out at 17 RU; in experiment [6], 21 RU; in experiment [9], 0 RU. For the same substance, the Ka was below 6e+06 M⁻¹ in experiment [5] and 9.7e+07 M⁻¹ in experiment [7]. For the same substance, the Fab/reference serum binding ratio in [8] came out at 1.48. The substance further yielded a response (RU), background in [10] of 38 RU.

On to b12 IgG1 (antibody), for which the Ka in experiment [11] is 1.3e+09 M⁻¹.

As for Fab b12, the IC50 in experiment [1] was 1 nM. Further, in experiment [2], the Fab concentration at saturation stood at 100 µg/mL. This substance returned a koff in [3] of 0.00043 s⁻¹. In experiment [3], this substance displayed a kon of 45000 M⁻¹ s⁻¹. The response (RU), background subtracted in experiment [4] is 0 RU; in [6], 22 RU. For the same substance, the excess of gp120 over gp160 immunoreacted in experiment [12] was above 50%. Besides, the Ka in experiment [5] turned out to be 3e+07 M⁻¹; in experiment [7] it was 1.1e+08 M⁻¹. The Fab/reference serum binding ratio in [8] worked out at 0.23. The response (RU), background in experiment [13] amounted to 17 RU.
